Assay results from publication PMC8461249.

Key:
[1] = molecular target: TβRII-SE/Fc (TβRII-Soluble Endogenous fused to the human IgG1 Fc domain) (human); test: SPR; Biacore 3000, CM5 chip with anti-human Fc mixed with anti-mouse Fc antibodies; TβRII-SE/Fc or TβRII-Fc captured to 100–140 RU; TGF-β1, -β2 or -β3 injected at 0.4 to 30 nM, 50 μl/min, association 90 s, dissociation 300 s (900 s for slow rates); 0.1% surfactant; double referencing; 1:1 binding model; stoichiometry from Rmax and mass ratios
[2] = molecular target: TβRII-Fc (TβRII extracellular domain fused to human IgG1 Fc) (human) (UniProt P37173); test: as above
Chain of TβRII-Fc (TβRII extracellular domain fused to human IgG1 Fc) (human) (P37173 23-166): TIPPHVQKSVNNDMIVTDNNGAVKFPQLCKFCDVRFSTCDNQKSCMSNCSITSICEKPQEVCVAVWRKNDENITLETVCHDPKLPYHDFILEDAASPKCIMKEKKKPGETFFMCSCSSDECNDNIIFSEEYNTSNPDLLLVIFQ

TGF-β1 (ligand)
stoichiometry N (TGF-β dimer per bivalent Fc ligand) [1]: 1 | stoichiometry N (TGF-β dimer per bivalent Fc ligand) [2]: 1

TGF-β2 (ligand)
stoichiometry N (TGF-β dimer per bivalent Fc ligand) [1]: 1 | stoichiometry N (TGF-β dimer per bivalent Fc ligand) [2]: 1

TGF-β3 (ligand)
stoichiometry N (TGF-β dimer per bivalent Fc ligand) [1]: 1
